In patent US12269859B2, “Synthetic immune receptors and methods of use thereof” (Angeles Therapeutics, Inc., priority 2016, dated 2025):

B1: 030817-F07 (protein)
chain: MALPVTALLLPLALLLHAARPEIVLTQSPGTLSLSPGERATLSCRASSSVPYIHWYQQKPGQAPRLLIYATSALASGIPDRFSGSGSGTDFTLTISRLEPEDFAVYYCQQWLSNPPTFGQGTKLELKRLEIQNPDPAVYQLRDSKSSDKSVCLFTDFDSQTNVSQSKDSDVYITDKCVLDMRSMDFKSNSAVAWSNKSDFACANAFNNSIIPEDTFFPSSDVPCDVKLVEKSFETDTNLNFQNLSVIGFRILLLKVAGFNLLMTLRLWSSRAKRSGSGVKQTLNFDLLKLAGDVESNPGPTSMDWIWRILFLVGAATGAHSFEEVQLVQSGAEVKKPGESLKLSCKGSGRTFTSYNMHWVRQMPGKGLEWMGAIYPLTGDTSYNQKSKLQVTISADKSISTAYLQWSSLKASDTAMYYCARSTYVGGDWQFDVWGKGTTVTVSSTREDLKNVFPPEVAVFEPSKAEIAHTQKATLVCLATGFYPDHVELSWWVNGKEVHSGVCTDPQPLKEQPALNDSRYCLSSRLRVSATFWQNPRNHFRCQVQFYGLSENDEWTQDRAKPVTQIVSAEAWGRADCGITSASYHQGVLSATILYEILLGKATLYAVLVSALVLMAMVKRKDSRGRAKRSGSGATNFSLLKQAGDVEENPGPSRGHMTEYKPTVRLATRDDVPRAVRTLAAAFADYPATRHTVDPDRHIERVTELQELFLTRVGLDIGKVWVADDGAAVAVWTTPESVEAGAVFAEIGPRMAELSGSRLAAQQQMEGLLAPHRPKEPAWFLATVGVSPDHQGKGLGSAVVLPGVEAAERAGVPAFLETSAPRNLPFYERLGFTVTADVEVPEGPRTWCMTRKPGA
B2: 031417-L06 (protein)
chain: MALPVTALLLPLALLLHAARPQIVLSQSPAILSASPGEKVTMTCRASSSVSYMHWYQQKPGSSPKPWIYATSNLASGVPARFSGSGSGTSYSFTISRVEAEDAATYYCQQWTFNPPTFGGGTRLEIKRTVAALEDLKNVFPPEVAVFEPSKAEIAHTQKATLVCLATGFYPDHVELSWWVNGKEVHSGVCTDPQPLKEQPALNDSRYCLSSRLRVSATFWQNPRNHFRCQVQFYGLSENDEWTQDRAKPVTQIVSAEAWGRADCGITSASYHQGVLSATILYEILLGKATLYAVLVSALVLMAMVKRKDSRGRAKRSGSGATNFSLLKQAGDVEENPGPTSMDWIWRILFLVGAATGAHSFEQAYLQQSGAELVRPGASVKMSCKASGYTFTSYNMHWVKQTPRQGLEWIGGIYPGNGDTSYNQKFKGKATLTVGKSSSTAYMQLSSLTSEDSAVYFCARYDYNYAMDYWGQGTSVTVSSASTRIQNPDPAVYQLRDSKSSDKSVCLFTDFDSQTNVSQSKDSDVYITDKCVLDMRSMDFKSNSAVAWSNKSDFACANAFNNSIIPEDTFFPSSDVPCDVKLVEKSFETDTNLNFQNLSVIGFRILLLKVAGFNLLMTLRLWSSRAKRSGSGVKQTLNFDLLKLAGDVESNPGPSRGHMTEYKPTVRLATRDDVPRAVRTLAAAFADYPATRHTVDPDRHIERVTELQELFLTRVGLDIGKVWVADDGAAVAVWTTPESVEAGAVFAEIGPRMAELSGSRLAAQQQMEGLLAPHRPKEPAWFLATVGVSPDHQGKGLGSAVVLPGVEAAERAGVPAFLETSAPRNLPFYERLGFTVTADVEVPEGPRTWCMTRKPGA
B3: 030817-E07 (protein)
chain: MALPVTALLLPLALLLHAARPEIVLTQSPSSLSASVGDRVTITCRASSSLSFMHWYQQKPGKAPKPWIYATSNLASGVPSRFSGSGSGTDYTLTISSLQPEDFATYFCHQWSSNPLTFGGGTKVEIKLEIQNPDPAVYQLRDSKSSDKSVCLFTDFDSQTNVSQSKDSDVYITDKCVLDMRSMDFKSNSAVAWSNKSDFACANAFNNSIIPEDTFFPSSDVPCDVKLVEKSFETDTNLNFQNLSVIGFRILLLKVAGFNLLMTLRLWSSRAKRSGSGVKQTLNFDLLKLAGDVESNPGPTSMDWIWRILFLVGAATGAHSFEQVQLVQSGAEVKKPGASVKVSCKASGYTFTSYNMHWVRQAPGQRLEWIGAIYPGNGDTSYNQKFKGRVTVTRDTSANTAYMELSSLKSEDTAVYYCARSHYGSNYVDYFDYWGQGTLVTVSSTREDLKNVFPPEVAVFEPSKAEIAHTQKATLVCLATGFYPDHVELSWWVNGKEVHSGVCTDPQPLKEQPALNDSRYCLSSRLRVSATFWQNPRNHFRCQVQFYGLSENDEWTQDRAKPVTQIVSAEAWGRADCGITSASYHQGVLSATILYEILLGKATLYAVLVSALVLMAMVKRKDSRGRAKRSGSGATNFSLLKQAGDVEENPGPSRGHMTEYKPTVRLATRDDVPRAVRTLAAAFADYPATRHTVDPDRHIERVTELQELFLTRVGLDIGKVWVADDGAAVAVWTTPESVEAGAVFAEIGPRMAELSGSRLAAQQQMEGLLAPHRPKEPAWFLATVGVSPDHQGKGLGSAVVLPGVEAAERAGVPAFLETSAPRNLPFYERLGFTVTADVEVPEGPRTWCMTRKPGA
B4: 030817-W07 (protein)
chain: MALPVTALLLPLALLLHAARPSTVMTQSPDSLAVSLGERATINCKSSQSNSNDVAWYQQKPGQSPKVLIYFASNRYSGVPDRFSGSGYGTDFTLTISSLQAEDVAVYFCQQDYSSPLTFGAGTKLELKRADALEDLKNVFPPEVAVFEPSKAEIAHTQKATLVCLATGFYPDHVELSWWVNGKEVHSGVCTDPQPLKEQPALNDSRYCLSSRLRVSATFWQNPRNHFRCQVQFYGLSENDEWTQDRAKPVTQIVSAEAWGRADCGITSASYHQGVLSATILYEILLGKATLYAVLVSALVLMAMVKRKDSRGRAKRSGSGATNFSLLKQAGDVEENPGPTSMDWIWRILFLVGAATGAHSFEQIQLVQSGSELKKPGASVKVSCKASGYTFTNFGVNWVRQAPGKGLEWMGWINTYTGEPSYAQGFTGRFVFSLDASVSTAYLQISSLKAEDTATYFCTRRTNYYGTSYYYAMDYWGQGTTVTVSSAKTTTRIQNPDPAVYQLRDSKSSDKSVCLFTDFDSQTNVSQSKDSDVYITDKCVLDMRSMDFKSNSAVAWSNKSDFACANAFNNSIIPEDTFFPSSDVPCDVKLVEKSFETDTNLNFQNLSVIGFRILLLKVAGFNLLMTLRLWSSRAKRSGSGVKQTLNFDLLKLAGDVESNPGPSRGHMTEYKPTVRLATRDDVPRAVRTLAAAFADYPATRHTVDPDRHIERVTELQELFLTRVGLDIGKVWVADDGAAVAVWTTPESVEAGAVFAEIGPRMAELSGSRLAAQQQMEGLLAPHRPKEPAWFLATVGVSPDHQGKGLGSAVVLPGVEAAERAGVPAFLETSAPRNLPFYERLGFTVTADVEVPEGPRTWCMTRKPGA
B5: 022817-T04 (protein)
chain: MALPVTALLLPLALLLHAARPEIVLTQSPATLSLSPGERATLSCRASQSVSSYLAWYQQKPGQAPRLLIYDASNRATGIPARFSGSGSGTDFTLTISSLEPEDFAVYYCQQRSNWPITFGQGTRLEIKLEGKPIPNPLLGLDSTGSGEDLKNVFPPEVAVFEPSKAEIAHTQKATLVCLATGFYPDHVELSWWVNGKEVHSGVCTDPQPLKEQPALNDSRYCLSSRLRVSATFWQNPRNHFRCQVQFYGLSENDEWTQDRAKPVTQIVSAEAWGRADCGITSASYHQGVLSATILYEILLGKATLYAVLVSALVLMAMVKRKDSRGRAKRSGSGATNFSLLKQAGDVEENPGPTSMDWIWRILFLVGAATGAHSFEEVQLVESGGGLVQPDRSLRLSCAASGFTFHDYAMHWVRQAPGKGLEWVSTISWNSGTIGYADSVKGRFTISRDNAKNSLYLQMNSLRAEDTALYYCAKDIQYGNYYYGMDVWGQGTTVTVSSTREQKLISEEDGSGIQNPDPAVYQLRDSKSSDKSVCLFTDFDSQTNVSQSKDSDVYITDKCVLDMRSMDFKSNSAVAWSNKSDFACANAFNNSIIPEDTFFPSSDVPCDVKLVEKSFETDTNLNFQNLSVIGFRILLLKVAGFNLLMTLRLWSSRAKRSGSGVKQTLNFDLLKLAGDVESNPGPSRGHMTEYKPTVRLATRDDVPRAVRTLAAAFADYPATRHTVDPDRHIERVTELQELFLTRVGLDIGKVWVADDGAAVAVWTTPESVEAGAVFAEIGPRMAELSGSRLAAQQQMEGLLAPHRPKEPAWFLATVGVSPDHQGKGLGSAVVLPGVEAAERAGVPAFLETSAPRNLPFYERLGFTVTADVEVPEGPRTWCMTRKPGA
B6: 030817-X05 (protein)
chain: MALPVTALLLPLALLLHAARPDIQMTQSPSSLSASVGDRVTITCRASSSVSYMHWYQQKPGKAPKPLIYAPSNLASGVPSRFSGSGSGTDFTLTISSLQPEDFATYYCQQWSFNPPTFGQGTKVEIKRLEDLKNVFPPEVAVFEPSKAEIAHTQKATLVCLATGFYPDHVELSWWVNGKEVHSGVCTDPQPLKEQPALNDSRYCLSSRLRVSATFWQNPRNHFRCQVQFYGLSENDEWTQDRAKPVTQIVSAEAWGRADCGITSASYHQGVLSATILYEILLGKATLYAVLVSALVLMAMVKRKDSRGRAKRSGSGATNFSLLKQAGDVEENPGPTSMDWIWRILFLVGAATGAHSFEEVQLVESGGGLVQPGGSLRLSCAASGYTFTSYNMHWVRQAPGKGLEWVGAIYPGNGDTSYNQKFKGRFTISVDKSKNTLYLQMNSLRAEDTAVYYCARVVYYSNSYWYFDVWGQGTLVTVSSTRIQNPDPAVYQLRDSKSSDKSVCLFTDFDSQTNVSQSKDSDVYITDKCVLDMRSMDFKSNSAVAWSNKSDFACANAFNNSIIPEDTFFPSSDVPCDVKLVEKSFETDTNLNFQNLSVIGFRILLLKVAGFNLLMTLRLWSSRAKRSGSGVKQTLNFDLLKLAGDVESNPGPSRGHMTEYKPTVRLATRDDVPRAVRTLAAAFADYPATRHTVDPDRHIERVTELQELFLTRVGLDIGKVWVADDGAAVAVWTTPESVEAGAVFAEIGPRMAELSGSRLAAQQQMEGLLAPHRPKEPAWFLATVGVSPDHQGKGLGSAVVLPGVEAAERAGVPAFLETSAPRNLPFYERLGFTVTADVEVPEGPRTWCMTRKPGA

System: target antigen-expressing cell line
Test: Jurkat NFAT-GFP assay, coculture with target cell lines expressing the respective target antigen (summary Table 10A)
Assay type: cell-based, human
Set-up: key: The signs +/−, +, 2+ etc. after the name of the cell lines indicate the relative degree of positivity on the Jurkat-NFAT-GFP assay as measured by the % GFP positive cells; +: relative degree of positivity on the Jurkat-NFAT-GFP assay as measured by the % GFP positive cells; 2+: relative degree of positivity on the Jurkat-NFAT-GFP assay as measured by the % GFP positive cells
Settings: relative % GFP positive cells; for NFAT-GFP ASSAY Positive Cell lines: RAJI: SIR-expressing Jurkat-NFAT-GFP cells cocultured with RAJI
How it was run: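 Jurkat cells carrying an NFAT-driven GFP reporter and lentivirally expressing a SIR were cocultured with antigen-bearing target cells (E:T ~1:2) for about 4–18 h. GFP induction read by flow cytometry as % GFP+ cells, scored positive and graded (+/−, +, 2+) against parental Jurkat-NFAT-GFP cells.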

Molecule	NFAT-GFP ASSAY Positive Cell lines: RAJI	other results
B1	RAJI (+/−)	–
B2	RAJI (+/−)	–
B3	–	NFAT-GFP ASSAY Positive Cell lines: U266 (SIR-expressing Jurkat-NFAT-GFP cells cocultured with U266): U266 (+/−)
B4	RAJI (+/−)	–
B5	–	NFAT-GFP ASSAY Positive Cell lines: NALM6 (SIR-expressing Jurkat-NFAT-GFP cells cocultured with NALM6): (2+)
B6	RAJI (+/−)	–
